This note sets out measurements from patent publication US20260125455A1 (CLEVELAND CLINIC FOUNDATION, published 2026).

Test [1] deals with T1, human complement protein C6 (human, UniProt P13671 22-934).
T1 construct: also called human C6; C6 antigen
Nature of the test: ELISA, purified protein, anti-human IgG (Fab-specific) detection. How it is done:
The binding of the purified chimeric molecules, MoC601 HuG4K and MoC601 HuG1KFab, was also confirmed by ELISA, where the anti-human IgG (Fab-specific) secondary reagent was used. The control mouse antibody bound as previously (EC₅₀ 0.11 nM). The EC₅₀ for purified MoC601 HuG4K (0.27 nM) was similar to that obtained for the MoC601 HuG4K supernatant sample above. […] The EC₅₀ value for the Fab molecule (0.48 nM) was higher than for the antibody, which would be expected since the Fab is unable to bind bivalently to the antigen on the well. A C6-binding assay was also set up on the Octet RED384 instrument. […] However, MoC601 MoG1K could be stably loaded onto anti-mouse Fc (AMC) biosensors. Concentrations of the mouse and chimeric antibodies were adjusted to give similar levels of loading on to the AMC and […]

The target of test [2] is T1, human complement protein C6. Kind of test: C6-binding ELISA, A650 nm; sample 'C6-depleted human serum' (28 days at 37 C). The protocol: (§1) For the serum stability assessment, samples of the purified candidate antibodies are normally incubated in mouse, human and cynomolgus serum at 37 C for 28 days and then tested in an antigen-binding ELISA. Since the anti-C6 antibodies are expected to bind to both human and cynomolgus C6 but not mouse C6, we anticipated that incubating in human or cynomolgus sera would reduce ELISA binding due to occupation of the antibody binding sites by C6 protein from the sera. Therefore, the chimeric and humanized antibodies were tested with human and mouse sera and with human sera from which the C6 protein has been depleted. […]
(§2) Binding ELISAs used Nunc Maxisorp 384-well plates, wells coated with C6, C5b,6 complex or C5 (Complement Technology Inc, TX) and goat anti-human IgG (Fab specific) peroxidase secondary antibodies (Sigma-Aldrich, A0293) for detection. For the thermal stability assay, IgG supernatants were diluted to their EC₈₀ concentration, incubated at different temperatures for 10 min and C6 binding measured by ELISA with the binding signal plotted against temperature. Kinetics of C6 binding were measured by capturing antibodies from supernatant samples using Protein G biosensors and performing a 20 min association step with 2.5 nM C6 and a 20 min dissociation step using the Octet RED96. […]
A general note: In an ELISA, binding on a coated surface is turned into a signal by an enzyme label.

For test [3] the target is unchanged. Nature of the test: C6-binding ELISA, A650 nm; sample 'PBS, non-incubated' (kept at 4 C). The protocol: (§3) The C6-binding ELISA was then used to compare the binding abilities of the C601 antibodies that had been incubated in the 3 different sera to antibody samples that were incubated in PBS at 37 C or kept at 4 C (non-incubated).
(§4) Binding ELISAs used Nunc Maxisorp 384-well plates, wells coated with C6, C5b,6 complex or C5 (Complement Technology Inc, TX) and goat anti-human IgG (Fab specific) peroxidase secondary antibodies (Sigma-Aldrich, A0293) for detection. For the thermal stability assay, IgG supernatants were diluted to their EC₈₀ concentration, incubated at different temperatures for 10 min and C6 binding measured by ELISA with the binding signal plotted against temperature. Kinetics of C6 binding were measured by capturing antibodies from supernatant samples using Protein G biosensors and performing a 20 min association step with 2.5 nM C6 and a 20 min dissociation step using the Octet RED96. […] Binding of C6 measured using a three-fold concentration series of C6 from 0.03 nM-25 nM and data were fitted using a 1:1 model in two independent experiments.
(§5) The Uncle instrument (Unchained Labs) was used to monitor unfolding via intrinsic fluorescence and aggregation by static light scattering across a temperature gradient to obtain melting temperatures (Tₘ). […] Isoelectric points were determined by capillary isoelectric focusing using a PA800+ (Beckman Coulter).

Test [4] has the same target. Kind of test: SPR (Biacore 8K). The protocol: (§6) The kinetics of C6 binding was compared for the purified chimeric and lead humanized C601 using surface plasmon resonance (SPR, Biacore 8K). IgG were captured on a protein G sensor chip and binding of C6 measured using a three-fold concentration series of C6 from 0.03 nM-25 nM (FIG. 5). In a second experiment, a two-fold concentration series from 0.31 nM-20 nM C6 was used (FIG. 6). For all antibodies, binding of C6 occurred in a concentration-dependent manner and data could be fitted using a 1:1 model to calculate the association rate (kₒₙ), dissociation rates (kd) and affinity constant (KD). The kinetic data are shown in Table 5, which indicates only small differences between the parameters determined from the two independent experiments.
(§7) Binding ELISAs used Nunc Maxisorp 384-well plates, wells coated with C6, C5b,6 complex or C5 (Complement Technology Inc, TX) and goat anti-human IgG (Fab specific) peroxidase secondary antibodies (Sigma-Aldrich, A0293) for detection. For the thermal stability assay, IgG supernatants were diluted to their EC₈₀ concentration, incubated at different temperatures for 10 min and C6 binding measured by ELISA with the binding signal plotted against temperature. Kinetics of C6 binding were measured by capturing antibodies from supernatant samples using Protein G biosensors and performing a 20 min association step with 2.5 nM C6 and a 20 min dissociation step using the Octet RED96. Precise kinetic measurements were obtained by surface plasmon resonance (Biacore 8K, Cytiva). The IgG were captured on a protein G sensor chip. Binding of C6 measured using a three-fold concentration series of C6 from 0.03 nM-25 nM and data were fitted using a 1:1 model in two independent experiments.

The target is the same in test [5]. Kind of test: ELISA, C6-coated wells, large-scale purified antibody.
In test [6] the target is human complement protein C5 (human, UniProt P01031 19-673; P01031 678-1676). Kind of test: ELISA, C5-coated wells. How it is done: The 20 purified antibodies were tested by ELISA for their abilities to bind human complement proteins C5, C5b6 and C6. The antibodies were divided into two sets for this analysis. MoC601 HuG4K and HuG4K isotype controls were included alongside each set, as was C601HFKC4 HuG4K (aka 3713) expression supernatant from the original transfection as an additional positive control. In addition, three humanized antibodies (C601HFKC4 HuG4K, C601HPKI HuG4K and C601HPKC4 HuG4K) were included within both sets to allow better comparison between the plates. The antibodies all show specificity for C6 with no detectable binding to C5. All humanized antibodies bind to C6 and to C6 as part of the C5b6 complex. The lower plateaus of the C5b6 complex binding curves are explained by less C6 protein being available for binding when wells are coated with C5b6 complex as opposed to C6 alone. […] The EC₅₀ values are included in the figure but slightly different plateau levels observed for the antibodies are influencing the apparent EC₅₀ values. However, it was noted that the EC₅₀ values tended to be lower on the plates for the second set of antibodies. For this reason, a subset of the 20 antibodies was tested in a further ELISA for binding to C6 and C5b6 complex.
as §7

Test [7] addresses T1, human complement protein C6. Nature of the test: C6-binding ELISA, A650 nm; sample 'mouse serum' (28 days at 37 C). How it is done:
as §1, §2

The target is the same in test [8]. Kind of test: SPR (Biacore 8K), IgG on protein G chip, C6 0.03-25 nM 3-fold series, 1:1 fit. The protocol: as §6, §7
(In general: SPR reads the build-up and loss of mass on a sensor chip optically.)

For test [9] the target is unchanged. Nature of the test: C6-binding ELISA, A650 nm; sample 'PBS' (28 days at 37 C). The protocol:
(§8) For the serum stability assessment, samples of the purified candidate antibodies are normally incubated in mouse, human and cynomolgus serum at 37 C for 28 days and then tested in an antigen-binding ELISA. Since the anti-C6 antibodies are expected to bind to both human and cynomolgus C6 but not mouse C6, we anticipated that incubating in human or cynomolgus sera would reduce ELISA binding due to occupation of the antibody binding sites by C6 protein from the sera. Therefore, the chimeric and humanized antibodies were tested with human and mouse sera and with human sera from which the C6 protein has been depleted. The C6-binding ELISA was then used to compare the binding abilities of the C601 antibodies that had been incubated in the 3 different sera to antibody samples that were incubated in PBS at 37 C or kept at 4 C (non-incubated).
(§9) The Uncle instrument (Unchained Labs) was used to monitor unfolding via intrinsic fluorescence and aggregation by static light scattering across a temperature gradient to obtain melting temperatures (Tₘ). […] Isoelectric points were determined by capillary isoelectric focusing using a PA800+ (Beckman Coulter). […]

The target is the same in test [10]. Nature of the test: SPR (Biacore 8K), IgG on protein G chip, C6 0.31-20 nM 2-fold series, 1:1 fit. The protocol: as §6
The target is the same in test [11]. Nature of the test: C6-binding ELISA, A650 nm; sample 'human serun' (human serum, 28 days at 37 C). The protocol: as §1, §2
Test [12] has the same target. Nature of the test: C6-binding ELISA, A650 nm; sample 'PBS, non-incubated' (kept at 4 C) [cont.) D]. How it is done:
as §3, §4, §5

Test [13] shares this target. Nature of the test: C6-binding ELISA, A650 nm; sample 'mouse serum' (28 days at 37 C) [cont.) D]. How it is done: as §8, §9
For test [14] the target is unchanged. Kind of test: C6-binding ELISA, A650 nm; sample 'C6-depleted human serum' (28 days at 37 C) [cont.) D]. How it is done:
as §8, §9

For test [15] the target is unchanged. Nature of the test: C6-binding ELISA, A650 nm; sample 'human serun' (human serum, 28 days at 37 C) [cont.) D]. The protocol: as §8, §9
Test [16] has the same target. Kind of test: C6-binding ELISA, A650 nm; sample 'PBS' (28 days at 37 C) [cont.) D]. How it is done:
as §1, §2

T1 sequence (P13671 22-934 limits assumed): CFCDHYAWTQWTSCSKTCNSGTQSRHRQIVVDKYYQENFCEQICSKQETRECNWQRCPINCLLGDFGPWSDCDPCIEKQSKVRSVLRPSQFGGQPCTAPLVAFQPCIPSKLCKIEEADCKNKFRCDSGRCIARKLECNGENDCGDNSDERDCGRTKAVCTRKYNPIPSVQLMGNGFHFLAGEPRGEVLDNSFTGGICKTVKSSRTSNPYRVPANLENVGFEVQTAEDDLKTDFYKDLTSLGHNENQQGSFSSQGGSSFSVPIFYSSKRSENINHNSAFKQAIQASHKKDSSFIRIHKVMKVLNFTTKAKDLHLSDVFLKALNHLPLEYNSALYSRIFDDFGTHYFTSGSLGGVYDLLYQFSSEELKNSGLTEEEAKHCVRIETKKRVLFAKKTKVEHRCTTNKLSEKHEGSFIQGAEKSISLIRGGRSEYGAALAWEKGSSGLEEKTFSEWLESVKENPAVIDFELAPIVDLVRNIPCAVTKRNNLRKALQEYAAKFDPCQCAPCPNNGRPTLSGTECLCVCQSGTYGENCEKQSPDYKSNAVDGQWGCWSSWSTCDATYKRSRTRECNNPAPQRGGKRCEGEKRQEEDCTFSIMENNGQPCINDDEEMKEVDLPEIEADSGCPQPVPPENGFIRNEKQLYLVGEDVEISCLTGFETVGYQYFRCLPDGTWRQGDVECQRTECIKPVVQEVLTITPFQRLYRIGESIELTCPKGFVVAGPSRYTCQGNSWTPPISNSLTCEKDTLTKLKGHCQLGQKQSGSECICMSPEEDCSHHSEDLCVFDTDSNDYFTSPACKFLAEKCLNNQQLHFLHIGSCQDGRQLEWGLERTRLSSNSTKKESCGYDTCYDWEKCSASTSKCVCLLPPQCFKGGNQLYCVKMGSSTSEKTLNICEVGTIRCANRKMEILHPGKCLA
human complement protein C5, sequence (P01031 19-673 limits assumed, chain 1 of 2): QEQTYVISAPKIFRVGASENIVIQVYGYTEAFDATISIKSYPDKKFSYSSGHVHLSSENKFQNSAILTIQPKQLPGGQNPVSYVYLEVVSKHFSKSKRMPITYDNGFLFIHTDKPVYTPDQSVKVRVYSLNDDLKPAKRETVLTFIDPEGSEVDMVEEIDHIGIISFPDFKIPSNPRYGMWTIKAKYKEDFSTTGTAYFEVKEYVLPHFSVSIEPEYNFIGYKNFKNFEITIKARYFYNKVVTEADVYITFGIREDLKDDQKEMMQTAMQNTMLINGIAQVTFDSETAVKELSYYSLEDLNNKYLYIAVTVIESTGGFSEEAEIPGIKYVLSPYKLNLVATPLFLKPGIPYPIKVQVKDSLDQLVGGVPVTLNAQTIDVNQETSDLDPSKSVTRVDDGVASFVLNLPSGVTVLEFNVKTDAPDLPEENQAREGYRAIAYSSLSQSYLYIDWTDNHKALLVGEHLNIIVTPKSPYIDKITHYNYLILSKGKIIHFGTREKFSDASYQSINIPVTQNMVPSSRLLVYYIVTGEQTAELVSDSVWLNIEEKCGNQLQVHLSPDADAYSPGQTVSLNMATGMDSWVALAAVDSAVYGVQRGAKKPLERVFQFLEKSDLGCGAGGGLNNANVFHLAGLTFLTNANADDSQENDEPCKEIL
human complement protein C5, sequence (P01031 678-1676 limits assumed, chain 2 of 2): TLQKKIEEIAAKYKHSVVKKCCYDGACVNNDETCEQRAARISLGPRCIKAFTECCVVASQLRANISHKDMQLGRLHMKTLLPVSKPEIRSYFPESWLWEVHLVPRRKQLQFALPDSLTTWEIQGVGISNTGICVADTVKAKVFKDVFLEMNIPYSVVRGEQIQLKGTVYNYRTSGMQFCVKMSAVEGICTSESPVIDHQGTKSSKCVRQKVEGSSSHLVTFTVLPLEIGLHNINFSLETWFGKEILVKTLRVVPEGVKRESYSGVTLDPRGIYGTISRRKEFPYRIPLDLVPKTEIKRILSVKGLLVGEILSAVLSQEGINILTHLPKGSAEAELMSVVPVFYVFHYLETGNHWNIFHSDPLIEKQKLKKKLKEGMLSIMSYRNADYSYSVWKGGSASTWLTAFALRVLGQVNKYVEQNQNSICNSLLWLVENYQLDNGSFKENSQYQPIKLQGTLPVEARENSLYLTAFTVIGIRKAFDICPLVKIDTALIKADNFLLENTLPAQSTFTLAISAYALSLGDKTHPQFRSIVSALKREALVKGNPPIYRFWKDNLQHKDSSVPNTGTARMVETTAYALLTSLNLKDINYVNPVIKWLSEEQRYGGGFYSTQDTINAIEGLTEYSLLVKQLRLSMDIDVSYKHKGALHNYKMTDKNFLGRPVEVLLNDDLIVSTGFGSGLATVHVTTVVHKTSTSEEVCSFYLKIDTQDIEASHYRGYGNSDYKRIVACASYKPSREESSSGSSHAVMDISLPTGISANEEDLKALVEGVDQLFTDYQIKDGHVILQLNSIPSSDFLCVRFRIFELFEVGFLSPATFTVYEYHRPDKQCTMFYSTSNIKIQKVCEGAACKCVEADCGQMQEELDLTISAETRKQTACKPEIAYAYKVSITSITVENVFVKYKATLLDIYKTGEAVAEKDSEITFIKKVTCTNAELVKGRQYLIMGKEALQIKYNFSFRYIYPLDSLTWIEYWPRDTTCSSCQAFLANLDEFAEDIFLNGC

B1: MoC601 HuG1KFab (Fab, V domains shown)
VH: QVQLQQSGAELVKPGASVKISCKASGYAFSDYWMNWVKQRPGKGLEWIGQIYPGDDDTNYNGKFKGKATLTADKSSSTAYMQLSSLTSEDSAVYFCAREGYYGYTYVEYFDVWGTGTTVTVSS
VL: QIVLTQSPAIMSVSPGEKVTLTCSASSSVSYMHWYQQKSGTSPKRWIYDTSKLASGVPARFSGSGSGTSYSLTISSMEAEDAATYYCQQWTSNPLTFGAGTKLELRR
notes: also called chimeric Fab; Fab molecule
In general, EC50 refers to the concentration needed to bring the measured effect to its halfway point. Take B1: the concentration for a half-maximal effect (EC50) in test [1] was found to be 0.48 nM.

B2: C601HFKI HuG4K (antibody, human IgG4 S228P, kappa)
heavy: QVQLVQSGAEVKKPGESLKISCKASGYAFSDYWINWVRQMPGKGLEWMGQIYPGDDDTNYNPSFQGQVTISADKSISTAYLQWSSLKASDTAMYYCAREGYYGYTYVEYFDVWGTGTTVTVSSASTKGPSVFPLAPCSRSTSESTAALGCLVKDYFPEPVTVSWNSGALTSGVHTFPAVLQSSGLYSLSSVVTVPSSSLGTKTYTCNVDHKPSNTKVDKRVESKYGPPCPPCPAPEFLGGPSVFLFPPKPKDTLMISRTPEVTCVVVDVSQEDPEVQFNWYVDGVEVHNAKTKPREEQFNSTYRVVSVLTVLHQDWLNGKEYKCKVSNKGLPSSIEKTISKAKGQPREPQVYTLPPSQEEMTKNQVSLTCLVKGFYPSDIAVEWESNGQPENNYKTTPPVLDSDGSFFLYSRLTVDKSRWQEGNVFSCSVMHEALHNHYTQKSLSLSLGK
light: EIVLTQSPATLSLSPGERATLSCRASSSVSYLHWYQQKPGQSPRLWIYDTSKRATGIPARFSGSGSGTDYTLTISSLEPEDFAVYYCQQWTSNPLTFGQGTKLEIKRTVAAPSVFIFPPSDEQLKSGTASVVCLLNNFYPREAKVQWKVDNALQSGNSQESVTEQDSKDSTYSLSSTLTLSKADYEKHKVYACEVTHQGLSSPVTKSFNRGEC
A word on the Kd: it is the free concentration of one partner at which half of the binding sites on the other are occupied at equilibrium, for simple one-to-one binding. A high value points to a looser complex. For orientation: koff means the first-order rate constant of dissociation. Lower therefore signals a long-lived complex. Usually kon stands for a measure of how fast the partners come together. For B2, the 50% effective concentration (EC50) in test [2] stood at 0.19 nM; in [3], 0.2 nM; in test [5], 0.22 nM; in [7] it was 0.18 nM; in test [9], 0.22 nM; in [11] it was 0.2 nM. Further, the Kd was 0.348 nM in [4], 0.348 nM in test [8] and 0.279 nM in [10]. Further, the binding result in test [6] was “no binding”. For the same molecule, the off-rate constant (koff) in test [8] was 0.000308 s⁻¹; in test [10] it was 0.000317 s⁻¹. The on-rate constant (kon) in [8] was 890000 M⁻¹ s⁻¹; in test [10], 1.14e+06 M⁻¹ s⁻¹.

B3: C601HPKI HuG4K (antibody, human IgG4 S228P, kappa)
heavy: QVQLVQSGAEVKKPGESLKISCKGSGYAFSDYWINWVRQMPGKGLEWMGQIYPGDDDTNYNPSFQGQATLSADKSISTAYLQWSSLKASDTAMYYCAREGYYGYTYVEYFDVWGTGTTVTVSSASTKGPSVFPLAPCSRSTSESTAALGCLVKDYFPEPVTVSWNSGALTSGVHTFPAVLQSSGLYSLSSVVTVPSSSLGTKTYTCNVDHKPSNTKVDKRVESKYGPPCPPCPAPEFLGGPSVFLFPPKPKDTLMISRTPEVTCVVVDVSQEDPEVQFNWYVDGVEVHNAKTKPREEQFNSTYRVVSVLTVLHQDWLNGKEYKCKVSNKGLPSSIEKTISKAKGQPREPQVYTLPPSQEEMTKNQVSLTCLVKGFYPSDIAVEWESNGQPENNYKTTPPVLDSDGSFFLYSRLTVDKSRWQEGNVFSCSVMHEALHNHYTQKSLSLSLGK
light: EIVLTQSPATLSLSPGERATLSCRASSSVSYLHWYQQKPGQSPRLWIYDTSKRATGIPARFSGSGSGTDYTLTISSLEPEDFAVYYCQQWTSNPLTFGQGTKLEIKRTVAAPSVFIFPPSDEQLKSGTASVVCLLNNFYPREAKVQWKVDNALQSGNSQESVTEQDSKDSTYSLSSTLTLSKADYEKHKVYACEVTHQGLSSPVTKSFNRGEC
Take B3: the EC50 in test [12] was determined as 0.14 nM; in test [5], 0.17 nM; in [13] it was 0.15 nM; in test [14], 0.19 nM; in [15] it was 0.19 nM; in [16], 0.17 nM. Moreover, the Kd in test [4] was 0.433 nM; in test [8], 0.433 nM; in [10], 0.295 nM. In addition, the binding result in [6] is reported as “no binding”. Moreover, the off-rate constant (koff) in [8] was found to be 0.000445 s⁻¹; in test [10], 0.000361 s⁻¹. For the same molecule, the kon in [8] was found to be 1.03e+06 M⁻¹ s⁻¹; in test [10], 1.23e+06 M⁻¹ s⁻¹.
